Experimental data reported in the supplement of paper PMC10567573.

B1: SMOC2 (parent)
chain: QKPLCASDGRTFLSRCEFQRAKCK
B2: SFRS1 (parent)
chain: RDIDLKNRRGGPPFAFVEFEDPRD

Variants of: B1
Assay: protein stability index of a GFP-peptide fusion (GPS, HEK-293T) (PSI 1-6); higher = more stable
Conditions: c terminus: a fixed tail appended
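Also: lentivirally expressed fusions sorted by FACS into six bins by GFP to DsRed ratio, PSI derived from sequencing read proportions per bin multiplied by bin number.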

Protein stability index of substitutions, site by site:
Q1: A 2.81; F 3.05; K 3.41; H 2.48; Y 2.97; L 2.17; M 2.78; E 3.39; S 2.68; T 3.41; C 1.87; N 3.36; I 2.19; G 3.23; R 2.76; D 2.68; P 2.64; V 2.58
T11: W 2.81; C 2.05; Q 3.74; V 2.33; R 2.52; N 3.06; K 4.04; I 2.71; A 3.12; S 3.14; H 2.38; Y 2.03; G 2.6; P 3.37; D 3.33; F 2.09; E 3.89; L 2.68; M 2.89
R10: L 3.04; G 3.17; T 3.54; M 2.72; K 2.96; E 3.27; N 1.99; S 3.84; C 2.89; Q 3.33; A 3.24; W 2.58; Y 2.91; P 3.11; H 2.71; D 3.76; V 4.03; I 2.53; F 2.95
L4: V 2.52; F 2.18; S 3.35; H 2.59; K 2.52; E 3.77; M 2.29; Q 2.81; Y 1.99; T 2.65; I 2.31; P 2.79; D 3.83; R 3.25; N 3.08; W 2.51
S7: T 2.5; D 3.36; R 2.38; H 2.57; K 3.32; N 3.76; F 2.8; Y 2.15; W 2.85; M 1.67; I 2.31; A 2.33; E 2.86; P 3.45; Q 2; C 1.82; L 2.82; V 2.59
P3: C 2.39; H 2.17; Q 2.28; G 2.5; L 2.67; T 2.81; W 1.53; E 4.05; F 1.89; R 3.19; K 2.42; V 2.31; Y 2.83; I 2.16; A 2.36; N 2.2; M 3.12
L13: A 1.9; C 3.51; D 4.78; E 3.72
D8: T 2.9; N 2.77; I 2.35; R 3.23; C 1.63; Y 2.67; L 1.97; V 2.76; P 2.75; A 2.37; F 1.94; H 2.52; E 3.66; M 2.63; K 2.56; Q 1.93
C5: W 2.31; T 3.41; V 3.16; S 2.91; R 2.5; K 2.19; D 3.29; N 4.28; G 2.44; I 1.74; P 2.94; F 2.01; Y 2.38; H 2.7; A 3.31; Q 2.88
G9: A 2.58; P 2.45; Q 2.64; E 3.48; Y 1.9; W 2.82; T 2.67; V 2.93; I 1.9; M 3.19; S 3.42; C 2.35; H 2.75; R 2.94; K 2.14; N 2.82; F 2.2; L 2.68; D 3.99
F12: P 4; W 2.34; N 3.96; M 3.16; H 4.22; T 3.63; L 2.97; A 3.84; R 3.73; Q 4.5; C 2.97; I 3.4; G 3.93; S 4.83; D 4.57; V 3.92; Y 2.49; E 4.5
A6: K 2.82; P 3.32; I 2.74; D 2.9; R 2.74; L 2.47; Q 3.21; V 3.69; C 2.57; T 2.42; W 2.69; S 3.44; Y 2.71; N 2.63; F 1.89; H 3.61; G 2.38; M 2.48
K2: W 2.48; A 2.61; L 2.99; D 3.62; M 3.87; Y 2.48; G 3.16; P 3.18; V 2.97; I 3.51; S 2.93; C 2.03; R 3.47; F 2.75; T 3.18; E 3.78

Variants of: B2
Assay: as above
Conditions: c terminus: a fixed tail appended

Protein stability index of substitutions, site by site:
P22: M 3.76; I 3.94; V 3.76; K 4.09; G 4.03; A 3.93; Q 4.44; Y 3.58; R 3.62; S 3.93; W 3.55; L 3.19; C 3.8; F 2.9; H 3.63; E 4.43; T 3.99; D 4.5; N 4.15
E18: Y 2.3; S 2; V 2.2; T 2.74; W 1.88; R 3.13
R23: V 3.45; E 4.1; P 4.53; M 3.79; T 4.33; G 3.84; N 4.24; F 3.37; A 3.88; S 4.07; W 3.62; I 3.67; K 4.14; C 3.67; H 4.17; Y 3.19; D 4.18; L 3.72; Q 4.15
E20: C 2.67; S 2.89; T 3.3; L 2.71; F 2.67; R 2.91; Y 2.46; H 3.21; A 3.06; I 2.56; N 3.68; G 3.14; K 3.52; D 3.94; P 3.66; V 3.02; W 2.72; M 2.57; Q 2.91
D21: H 3.34; P 3.45; G 2.55; I 2.63; C 2.73; Q 3.54; L 2.51; W 2.95; V 3.02; M 2.8; Y 3.18; F 2.65; A 3.1; E 3.99; T 3.72; R 3.08; S 3.26; N 3.38; K 3.73
D24: T 3.13; G 3.47; L 2.31; K 3.65; Y 2.5; E 4.76; R 3.19; H 3.59; N 2.9; V 3.11; W 1.33; C 2.46; A 3.74; P 3.42; I 2.72; Q 3.39; M 2.64; S 3.02; F 2.15
F19: C 3.05; K 3.18; N 3.38; Y 4.11; I 3.27; G 4.03; M 3.19; H 3.95; R 3.38; V 3.03; A 2.95; L 4.22; Q 3.94; P 3.85; T 3.47; E 4.77; S 3.19; W 3.39; D 3.69
